In the supplement of paper PMC10567573:

B1: CHIT1 (parent)
chain: CSWKGATKQRIQDQKVPYIFRDNQ

Variants of: B1
Test: protein stability index of a GFP-peptide fusion (GPS, HEK-293T) (PSI 1-6); higher = more stable
Settings: c terminus: a fixed tail appended
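Also: lentivirally expressed fusions sorted by FACS into six bins by GFP to DsRed ratio, PSI derived from sequencing read proportions per bin multiplied by bin number.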

Question: Which protein stability index does the source give for K8V here?
Answer: 3.23

Question: For K8I, which protein stability index is on record?
Answer: 2.15

Question: Which protein stability index does the source give for K8H here?
Answer: 2.53

Question: With K8C as the variant, how does the protein stability index read?
Answer: 1.76

Question: With K8Q as the variant, how does the protein stability index read?
Answer: 2.12

Question: For K8W, which protein stability index is on record?
Answer: 2.03

Question: Which protein stability index does the source give for K8S here?
Answer: 2.44

Question: With K8E as the variant, how does the protein stability index read?
Answer: 3.19

Question: For K8P, which protein stability index is on record?
Answer: 2.23

Question: With K8D as the variant, how does the protein stability index read?
Answer: 2.59

Question: For K8F, which protein stability index is on record?
Answer: 2.21

Question: Which protein stability index does the source give for K8A here?
Answer: 2.58

Question: For N23Q, which protein stability index is on record?
Answer: 2.6

Question: For N23S, which protein stability index is on record?
Answer: 2.2

Question: Which protein stability index does the source give for N23H here?
Answer: 1.99

Question: For N23P, which protein stability index is on record?
Answer: 2.38

Question: For N23A, which protein stability index is on record?
Answer: 2.76

Question: With K15V as the variant, how does the protein stability index read?
Answer: 1.39

Question: With K15P as the variant, how does the protein stability index read?
Answer: 3.22

Question: For K15F, which protein stability index is on record?
Answer: 1.54

Question: Which protein stability index does the source give for K15Q here?
Answer: 2.19

Question: For K15C, which protein stability index is on record?
Answer: 2.99

Question: With K15H as the variant, how does the protein stability index read?
Answer: 2.26

Question: For K15Y, which protein stability index is on record?
Answer: 3.73

Question: For G5N, which protein stability index is on record?
Answer: 2.69

Question: Which protein stability index does the source give for G5C here?
Answer: 1.57

Question: With G5K as the variant, how does the protein stability index read?
Answer: 2.79

Question: Which protein stability index does the source give for G5M here?
Answer: 2.02

Question: With G5W as the variant, how does the protein stability index read?
Answer: 3.45

Question: With G5I as the variant, how does the protein stability index read?
Answer: 2.11

Question: For G5Y, which protein stability index is on record?
Answer: 2.12

Question: With S2A as the variant, how does the protein stability index read?
Answer: 2.39

Question: With S2G as the variant, how does the protein stability index read?
Answer: 2.07

Question: Which protein stability index does the source give for S2L here?
Answer: 2.18

Question: For S2N, which protein stability index is on record?
Answer: 2.53

Question: With S2Y as the variant, how does the protein stability index read?
Answer: 1.49

Question: For S2D, which protein stability index is on record?
Answer: 3.06

Question: For K4H, which protein stability index is on record?
Answer: 3.06

Question: With K4F as the variant, how does the protein stability index read?
Answer: 1.26

Question: For K4D, which protein stability index is on record?
Answer: 2.7

Question: Which protein stability index does the source give for K4S here?
Answer: 2.6

Question: With K4M as the variant, how does the protein stability index read?
Answer: 2.6

Question: For Q9A, which protein stability index is on record?
Answer: 2.5

Question: With Q9V as the variant, how does the protein stability index read?
Answer: 2.44

Question: Which protein stability index does the source give for Q9K here?
Answer: 2.44

Question: For Q9F, which protein stability index is on record?
Answer: 1.94

Question: For Q9I, which protein stability index is on record?
Answer: 2.92

Question: For Q9L, which protein stability index is on record?
Answer: 1.78

Question: With Q9D as the variant, how does the protein stability index read?
Answer: 2.58

Question: With Q9N as the variant, how does the protein stability index read?
Answer: 2.62

Question: With Q9Y as the variant, how does the protein stability index read?
Answer: 2.17

Question: Which protein stability index does the source give for Q9W here?
Answer: 1.39

Question: With Q9S as the variant, how does the protein stability index read?
Answer: 2.57

Question: Which protein stability index does the source give for Q9M here?
Answer: 2.29

Question: For R10K, which protein stability index is on record?
Answer: 2.67

Question: Which protein stability index does the source give for R10L here?
Answer: 2.41

Question: With R10Q as the variant, how does the protein stability index read?
Answer: 2.8

Question: Which protein stability index does the source give for R10G here?
Answer: 2.38

Question: For R10T, which protein stability index is on record?
Answer: 3.68

Question: With R10E as the variant, how does the protein stability index read?
Answer: 3.87

Question: With R10M as the variant, how does the protein stability index read?
Answer: 2.6

Question: Which protein stability index does the source give for R10V here?
Answer: 2.43

Question: With R10H as the variant, how does the protein stability index read?
Answer: 2.94

Question: For R10A, which protein stability index is on record?
Answer: 3.57

Question: Which protein stability index does the source give for Q14Y here?
Answer: 1.92

Question: For Q14M, which protein stability index is on record?
Answer: 2.21

Question: Which protein stability index does the source give for Q14W here?
Answer: 1.99

Question: With Q14G as the variant, how does the protein stability index read?
Answer: 2.79

Question: With Q14C as the variant, how does the protein stability index read?
Answer: 2.6

Question: With Q14N as the variant, how does the protein stability index read?
Answer: 2.91

Question: With Q14S as the variant, how does the protein stability index read?
Answer: 2.37

Question: Which protein stability index does the source give for Q14A here?
Answer: 3.46

Question: With D13T as the variant, how does the protein stability index read?
Answer: 2.56

Question: For D13V, which protein stability index is on record?
Answer: 2.42

Question: With D13S as the variant, how does the protein stability index read?
Answer: 1.73

Question: Which protein stability index does the source give for D13M here?
Answer: 2.91

Question: For F20E, which protein stability index is on record?
Answer: 3.99

Question: Which protein stability index does the source give for F20A here?
Answer: 3.11

Question: For F20H, which protein stability index is on record?
Answer: 3.29

Question: Which protein stability index does the source give for F20V here?
Answer: 3.09

Question: Which protein stability index does the source give for F20M here?
Answer: 3.53

Question: With F20S as the variant, how does the protein stability index read?
Answer: 3.13

Question: For F20I, which protein stability index is on record?
Answer: 2

Question: For F20N, which protein stability index is on record?
Answer: 2.93

Question: Which protein stability index does the source give for F20C here?
Answer: 3.11

Question: For Q12D, which protein stability index is on record?
Answer: 3.08

Question: Which protein stability index does the source give for Q12P here?
Answer: 2.78

Question: For Q12L, which protein stability index is on record?
Answer: 2.18

Question: With Q12M as the variant, how does the protein stability index read?
Answer: 3.82

Question: Which protein stability index does the source give for Q12R here?
Answer: 1.83

Question: With Q24C as the variant, how does the protein stability index read?
Answer: 3.02

Question: Which protein stability index does the source give for Q24K here?
Answer: 3.16

Question: With Q24F as the variant, how does the protein stability index read?
Answer: 2.01

Question: Which protein stability index does the source give for Q24D here?
Answer: 3.34

Question: With Q24A as the variant, how does the protein stability index read?
Answer: 2.29

Question: With Q24L as the variant, how does the protein stability index read?
Answer: 2.31

Question: Which protein stability index does the source give for A6N here?
Answer: 2.83

Question: With A6F as the variant, how does the protein stability index read?
Answer: 2.14

Question: For A6G, which protein stability index is on record?
Answer: 1.82

Question: Which protein stability index does the source give for A6I here?
Answer: 2.32

Question: With A6V as the variant, how does the protein stability index read?
Answer: 2.25

Question: With T7Y as the variant, how does the protein stability index read?
Answer: 3.94

Question: Which protein stability index does the source give for T7D here?
Answer: 3.29

Question: With T7A as the variant, how does the protein stability index read?
Answer: 2.51

Question: Which protein stability index does the source give for T7G here?
Answer: 2.77

Question: With T7S as the variant, how does the protein stability index read?
Answer: 3.32

Question: Which protein stability index does the source give for T7M here?
Answer: 2.28

Question: Which protein stability index does the source give for T7W here?
Answer: 1.12

Question: Which protein stability index does the source give for T7H here?
Answer: 2.91

Question: For T7K, which protein stability index is on record?
Answer: 2.4

Question: For Y18F, which protein stability index is on record?
Answer: 2.12

Question: For Y18D, which protein stability index is on record?
Answer: 3.5

Question: For Y18P, which protein stability index is on record?
Answer: 2.58

Question: For Y18V, which protein stability index is on record?
Answer: 3.46

Question: For Y18A, which protein stability index is on record?
Answer: 2.88

Question: Which protein stability index does the source give for Y18H here?
Answer: 2.74

Question: For Y18W, which protein stability index is on record?
Answer: 2.19

Question: Which protein stability index does the source give for I11T here?
Answer: 2.66

Question: For I11E, which protein stability index is on record?
Answer: 3.33

Question: For I11V, which protein stability index is on record?
Answer: 2.98

Question: For I11C, which protein stability index is on record?
Answer: 2.3

Question: Which protein stability index does the source give for I11K here?
Answer: 2.69

Question: With I11R as the variant, how does the protein stability index read?
Answer: 3.15

Question: Which protein stability index does the source give for I11F here?
Answer: 2.44

Question: For I11L, which protein stability index is on record?
Answer: 3.14

Question: With C1R as the variant, how does the protein stability index read?
Answer: 2.86

Question: Which protein stability index does the source give for C1I here?
Answer: 2.62

Question: For C1T, which protein stability index is on record?
Answer: 2.79

Question: With C1Y as the variant, how does the protein stability index read?
Answer: 1.96

Question: With C1H as the variant, how does the protein stability index read?
Answer: 3.08

Question: With C1S as the variant, how does the protein stability index read?
Answer: 3.58

Question: Which protein stability index does the source give for D22F here?
Answer: 1.35

Question: For D22K, which protein stability index is on record?
Answer: 2.42

Question: With D22Q as the variant, how does the protein stability index read?
Answer: 2.33

Question: Which protein stability index does the source give for D22P here?
Answer: 2.22

Question: Which protein stability index does the source give for D22G here?
Answer: 3.03

Question: Which protein stability index does the source give for D22W here?
Answer: 1.6

Question: With D22T as the variant, how does the protein stability index read?
Answer: 2.18

Question: With P17A as the variant, how does the protein stability index read?
Answer: 2.64

Question: With P17S as the variant, how does the protein stability index read?
Answer: 1.81

Question: Which protein stability index does the source give for P17Q here?
Answer: 1.98

Question: Which protein stability index does the source give for P17F here?
Answer: 1.54

Question: Which protein stability index does the source give for P17C here?
Answer: 2.75

Question: Which protein stability index does the source give for P17E here?
Answer: 2.3

Question: Which protein stability index does the source give for P17L here?
Answer: 1.33

Question: For P17M, which protein stability index is on record?
Answer: 1.37

Question: Which protein stability index does the source give for I19K here?
Answer: 3.67

Question: With I19F as the variant, how does the protein stability index read?
Answer: 2.08

Question: For I19E, which protein stability index is on record?
Answer: 3.31

Question: Which protein stability index does the source give for V16C here?
Answer: 3.13

Question: Which protein stability index does the source give for V16K here?
Answer: 3.11

Question: With V16P as the variant, how does the protein stability index read?
Answer: 3.31

Question: For V16H, which protein stability index is on record?
Answer: 2.27

Question: With R21P as the variant, how does the protein stability index read?
Answer: 3.15

Question: For R21L, which protein stability index is on record?
Answer: 2.9

Question: With R21M as the variant, how does the protein stability index read?
Answer: 2.44

Question: For R21H, which protein stability index is on record?
Answer: 2.38

Question: Which protein stability index does the source give for R21S here?
Answer: 3.12

Question: For R21A, which protein stability index is on record?
Answer: 3.06

Question: For R21V, which protein stability index is on record?
Answer: 1.96

Question: For W3N, which protein stability index is on record?
Answer: 2.93

Question: For W3L, which protein stability index is on record?
Answer: 2.71

Question: For W3G, which protein stability index is on record?
Answer: 3.19

Question: For W3M, which protein stability index is on record?
Answer: 2.69

Question: Which protein stability index does the source give for W3Q here?
Answer: 3.6

Question: With W3F as the variant, how does the protein stability index read?
Answer: 2.78

Question: With W3R as the variant, how does the protein stability index read?
Answer: 3.71
